The text below walks through data of the supplement of paper PMC12042874.

± gives the uncertainty stated by the source.

A short description of the data set: amyloid nucleation score (Sup35N fusion, yeast selection) (log enrichment); library NNK2; higher = more nucleation; inactive = no reads after selection. In outline: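 The nucleation score equals the log enrichment of output over input reads from DiMSum, centred on the mode score of non-aggregating sequences. It was computed only for sequences with 100 or more input reads. The reads came from Illumina sequencing of plasmid inserts from psi-negative yeast expressing Sup35N fused to peptides of 20 random codons, induced with 100 μM copper sulfate for 24 hours and grown 7 days at 30°C without adenine and uracil.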
For RTTWPHLVGSRILFYTSHSM, the amyloid nucleation score was -0.392 ± 0.63.
For STVELEQYGSSARADYLVWR, the amyloid nucleation score turned out to be 0.58 ± 0.64.
For the substance TMFLYSNAEDFF, the amyloid nucleation score result is “inactive”.
FSFVTFSGNRFDFLLLRPCT: the amyloid nucleation score result was “inactive”.
For GLFGGIHFVANLGTPPCLDE, the amyloid nucleation score was 1.56 ± 0.31.
For the substance YLWDTEDYMRMWAKRWEKAR, the amyloid nucleation score worked out at 0.259 ± 0.56.
In turn, SLRMGFTKSVVARGAWRNWV came in with an amyloid nucleation score of 4.1 ± 0.057.
In turn, CFFRKMPHCRLTTWRRVASI displayed an amyloid nucleation score of 0.675 ± 0.25.
The result for CFMYT reads -0.415 ± 0.21.
Take NMRRYLIDMKGVEVLGFMCS: the amyloid nucleation score result was “inactive”.
Turning to CWVIKGRAKCV, the amyloid nucleation score is -0.26 ± 1.
Substance VGPMEGGYPGVAQLLGEKRN had an amyloid nucleation score of 2.3 ± 0.2.
HGLEVVQMASSLELQARKKA returned an amyloid nucleation score of 0.049 ± 0.34.
With KSHSDSFDYW the figure was 0.233 ± 0.74; with CDLLVPQRYSAGLPLPVVKE, 1.8 ± 0.24.
In the case of QPGSGFSVAPVQVKHNTVCR, the amyloid nucleation score worked out at 0.397 ± 0.33.
LGFDFSNVKRTGRVTFFDCM came in with an amyloid nucleation score of -0.1 ± 0.35.
Substance SRGVS came in with an amyloid nucleation score of -0.433 ± 0.43.
Consider VGDVKVWTVRSSTNATEKFL, for which the amyloid nucleation score was 0.551 ± 0.27.
In turn, KKSSVPTSYLYVNENFLTVL showed an amyloid nucleation score of 6.965 ± 0.054.
On to VNFNMALDNYFSNFEYRVRN, for which the amyloid nucleation score was -1.17 ± 0.35.
The result for LSLMTSLRWIGHSSFIVSKP reads -0.168 ± 0.79.
The result for CRSATEPCVLSC reads 0.56 ± 0.74; that for GILMISDAYDIREYFKLVTF, -1.32 ± 0.62.
Substance SLEGLSCFTLANCLLR displayed an amyloid nucleation score of 0.288 ± 0.24.
In turn, CSSSNINRFS displayed an amyloid nucleation score of 2.99 ± 0.12.
On to NCRLKLPSP, for which the amyloid nucleation score was found to be 3.69 ± 0.05.
On to RVPFFVGAG, for which the amyloid nucleation score was -0.271 ± 0.74.
EETVLIFLCYMAGRDLYKVN showed an amyloid nucleation score of 3.21 ± 0.096.
Consider ICILDYND, for which the amyloid nucleation score was -1.15 ± 0.76.
With SIFFC the figure was 2.09 ± 0.09; with NKRELNIVV, 0.701 ± 0.43; with RVMYGGCFHSRKRASVPYLY, -0.405 ± 0.76.
As for YRFYSLRMYKFWWLTLTLCL, the amyloid nucleation score is -1.12 ± 1.1.
The result for HIFVVGMDRSVVSRSVEP reads “inactive”; that for AYAHH, 4.08 ± 0.072; that for SGTDDLCMVPLGYLLTMRLP, 0.7 ± 0.39.
In the case of MYSLR, the amyloid nucleation score entry is “inactive”.
In turn, SFELFCVWGR yielded an amyloid nucleation score of -0.827 ± 0.54.
In turn, KSVFYIWFSHRVSVVAVRQL returned an amyloid nucleation score of 5.13 ± 0.093.
The substance LYWSFYNYWATHVGFWHKKA came in with an amyloid nucleation score of -1.87 ± 0.64.
With TQLIVMCHFVVHRRVKWRI the figure was 0.786 ± 0.3; with VRKSHS, 0.308 ± 0.42; with LVCNPYMRDTARSESLGSAW, 0.923 ± 0.66.
The result for YFYNGWRERARSEQCNHRT reads 0.441 ± 0.43; that for FGRRLQGRHINSNDQWGRQA, 0.339 ± 0.61; that for TVHRLRNVCLL, 2.51 ± 0.25.
In the case of MDSDNFLQYYSRYFNEVAFC, the amyloid nucleation score is -0.145 ± 0.79.
Substance QKMRFYWLVMMAV showed an amyloid nucleation score of -0.283 ± 1.
Turning to FSLWSLERLKPIGLSSRMSG, the amyloid nucleation score turned out to be 3.45 ± 0.16.
On to KYYCATSSVFYASSRQMFKS, for which the amyloid nucleation score is -0.267 ± 0.49.
In turn, YRVRCLHWHLIFDCNKKRSK had an amyloid nucleation score of -0.331 ± 1.1.
In turn, VARVWEWFCVCWTWDSELVG came in with an amyloid nucleation score of 3.69 ± 0.057.
LDVPARSMCFY displayed an amyloid nucleation score of -0.761 ± 0.61.
RMLLKLTHFALSVKGMQSRY displayed an amyloid nucleation score of 0.417 ± 0.38.
LCNGKAPCFKLCIRCLVGLW registered an amyloid nucleation score of 2.82 ± 0.13.
On to PGCSIDWILYRRTAYGTISD, for which the amyloid nucleation score is -0.619 ± 0.36.
On to GTSDSWTNVGRHYLKGVRDG, for which the amyloid nucleation score is -1.08 ± 0.55.
